The labels stand for the following.
B1: CM31 recombinant plasma mAb (subject P3, Lin.3) (antibody, V domains shown)
VH: QVTLKESGPTLVKPTQTLTLTCTVSGFSLSTNGVGVAWVRQPPGKALEWLGLIYWDDAQRYGPSLKSRLTITKDTSKNQVVLTLTNMDPVDTGTYYCSHVWVNSTHRQIDYWGQGTLVTVSS
VL: QPVLTQPPSSSASPGESARLTCTLPSDFNVGSYNIYWYQKRPGSPPRYLLYYYSDSDKGQGSGVPSRFSGSKDASANTGILLISGLQSEDEADYYCMIWPINGVVFGGGTKLTVL
B2: CM29 recombinant plasma mAb (subject P3, Lin.1) (antibody, V domains shown)
VH: QVQLVESGGGVVQPGRSLRLSCAASGFTLSKYGMHWVRQAPDKGLEWVALMSYDGSIKYYGDSVKGRFTVSRDSSKNTLYLQMNNLRDDDTAVYFCARGAMAGNSSFDHWGQGTLVTVSS
VL: not shown
B3: CM32 recombinant plasma mAb (subject P3, Lin.4) (antibody, V domains shown)
VH: QVQLVQSGPEVKKPGASVKVSCQTSGYSFSDHYLHWVRQTPGQGFEWMGWIKPKSGATNSADNFQDRVTMTADASVNTAYMELSSLRPDDTAVYYCARGHRIPSAISDKYDFWGQGTLVTVSS
VL: QSVLTQPASVSASPGQSITISCTGTSSDVGGYDYVSWYQHHPDNAPKLLIFEVSNRPSGVSNRFSGSKSGNAASLTISGLLAEDEADYFCTSYSSGRTPYVFGTGTKVTVL
B4: CM30 recombinant plasma mAb (subject P3, Lin.2) (antibody, V domains shown)
VH: QVQLVESGGGLVKPGGSLRLSCAASGFTFSDYYMSWIRQAPGKGLEWVSSIDGSTSYTKYADSVKGRFTISRDNAKNSLYLQMNSLRAEDTAVYYCARVGPAVAGSPFDSWGQGTLVTVSS
VL: EIVLTQSPATLSLSPGERATLSCRASQSVSTYLAWYQQKPGQAPRLLIFDASNRATGIPARFSGSGSGTDFTLTISSLEPEDFAVYYCQQRSNWLFSFGPGTKVDIK

The target of the experiment is SARS-CoV-2 spike ectodomain, HexaPro variant (SARS-CoV-2, Wuhan-Hu-1 (MN908947), stabilised). Kind of experiment: BLI. On the technique in general: Biolayer interferometry detects binding as a change in optical thickness at a sensor tip.
As to B1, the Kd is 37.7 nM. As for B2, the figure is 6.6 nM. B3 came in with a Kd of 6 nM.

In the case of B4, the equilibrium dissociation constant (Kd) stood at 0.8 nM.

As usually defined, the Kd is the constant that tells how readily two partners part at equilibrium. A low value points to higher affinity.

For the origin of these results see article doi:10.1101/2020.12.20.423708 (bioRxiv, 2020).
